Test results from the supplement of paper PMC10126150.
± gives the standard deviation of the averaged measurements.

Test system: ATP
Assay: switch fluorescence ratio, 500 uM ATP over buffer (Cy3 cluster intensity, sum of 5 cycles each) (fold (ratio)); higher = stronger signal-on switching upon ATP binding; sequences stand for … in TCGTCGGCAGCGTCAGATGTGTATAAGAGACAGTTTTTTTTTTTTTTTTTTTTTTTTT…TC
Conditions: aptamer strand: ATP DNA aptamer (quencher-CACCTGGGGGAGTATTGCGGAGGAAGG + anchor), 100 nM annealed; ATP concentration: 500 uM
Procedure, shortened: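 Per cluster, summed Cy3 intensity from the target cycles was divided by that from the buffer cycles to give the fluorescence ratio, then averaged per switch-domain sequence. Clusters outside 100-1000 RFU were excluded. The Cy3-labelled switching-strand clusters, on a modified Illumina MiSeq flow-cell, were annealed to 100 nM quencher-labelled ATP aptamer and imaged in selection buffer, then after 15 min with 500 uM ATP at 22 °C, for five cycles with NaOH stripping and re-annealing between them.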
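Also: ATP exposure 15 min at 22 °C before imaging.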

Row | Sequence | switch fluorescence ratio
1 | ATTGGGTAGG | 0.993 ± 0.025
2 | ATTGGTACTT | 0.986 ± 0.058
3 | ATTGGTATGC | 1.03 ± 0.011
4 | ATTGGTCCTG | 0.999 ± 0.02
5 | ATTGGTCTCA | 0.975 ± 0.023
6 | ATTGGTTAAA | 1 ± 0.026
7 | ATTGTAACAA | 1.037 ± 0.0089
8 | ATTGTAAGAT | 0.994 ± 0.027
9 | ATTGTAGGAC | 1.01 ± 0.036
10 | ATTGTCATGT | 1.047 ± 0.0062
11 | ATTGTCTATA | 0.981 ± 0.011
12 | ATTGTGAGGT | 0.992 ± 0.039
13 | ATTGTGGGTC | 1.04 ± 0.02
14 | ATTGTGGTTT | 1.01 ± 0.034
15 | ATTGTGTCTG | 1 ± 0.042
16 | ATTGTTATAT | 1 ± 0.03
17 | ATTGTTATCG | 1.02 ± 0.14
18 | ATTGTTTAAT | 1.03 ± 0.017
19 | ATTGTTTGAT | 1.01 ± 0.022
20 | ATTGTTTGCA | 1.02 ± 0.056
21 | ATTGTTTGGC | 1 ± 0.027
22 | ATTGTTTTTA | 0.998 ± 0.033
23 | ATTGTTTTTT | 0.995 ± 0.01
24 | ATTTAAGTGC | 0.981 ± 0.049
25 | ATTTAAGTTG | 0.987 ± 0.015

Row | Sequence | switch fluorescence ratio
26 | ATTTAATGAA | 0.982 ± 0.021
27 | ATTTAATTCT | 0.9981 ± 0.0077
28 | ATTTACCCTG | 1.08 ± 0.022
29 | ATTTACGCCT | 1.12 ± 0.05
30 | ATTTACGTAT | 1.06 ± 0.044
31 | ATTTACGTCT | 1.04 ± 0.056
32 | ATTTAGACTA | 1.01 ± 0.027
33 | ATTTAGGACA | 1.01 ± 0.021
34 | ATTTAGGCAT | 0.987 ± 0.042
35 | ATTTAGGGGA | 1.04 ± 0.056
36 | ATTTAGTAGT | 0.994 ± 0.057
37 | ATTTAGTATC | 1.09 ± 0.14
38 | ATTTAGTGTT | 1 ± 0.024
39 | ATTTAGTTTC | 0.976 ± 0.026
40 | ATTTATACTG | 1.05 ± 0.052
41 | ATTTATCCAA | 1 ± 0.039
42 | ATTTATCCAC | 1.01 ± 0.046
43 | ATTTATCCTC | 1.05 ± 0.029
44 | ATTTATCGCA | 1.011 ± 0.0041
45 | ATTTATCTGA | 0.99 ± 0.016
46 | ATTTATGAAA | 1.04 ± 0.054
47 | ATTTATGAG | 0.977 ± 0.036
48 | ATTTATGGGT | 0.987 ± 0.029
49 | ATTTATGTGT | 1.01 ± 0.057
50 | ATTTATTTAG | 0.987 ± 0.022

Row | Sequence | switch fluorescence ratio
51 | ATTTCACTCG | 1.01 ± 0.036
52 | ATTTCATCGT | 1.03 ± 0.012
53 | ATTTCCTTTG | 1.021 ± 0.006
54 | ATTTCGGA | 0.975 ± 0.034
55 | ATTTCGGTGC | 1.1 ± 0.17
56 | ATTTCGGTTG | 0.989 ± 0.026
57 | ATTTCGTCGT | 1.01 ± 0.03
58 | ATTTCGTTGC | 1.06 ± 0.058
59 | ATTTCTAATT | 1.07 ± 0.15
60 | ATTTCTATTT | 1.01 ± 0.059
61 | ATTTCTTTTG | 1.02 ± 0.056
62 | ATTTGAAAGT | 1.02 ± 0.011
63 | ATTTGACGGT | 1.07 ± 0.11
64 | ATTTGACGTT | 1.003 ± 0.006
65 | ATTTGAGGGT | 0.986 ± 0.021
66 | ATTTGAGTAT | 1.004 ± 0.0093
67 | ATTTGATGGG | 0.977 ± 0.03
68 | ATTTGCCGAC | 0.975 ± 0.019
69 | ATTTGCGGAG | 1.002 ± 0.0057
70 | ATTTGGCCGG | 1.01 ± 0.04
71 | ATTTGGCGCT | 0.994 ± 0.059
72 | ATTTGGCTGT | 0.997 ± 0.023
73 | ATTTGGGCCT | 1.02 ± 0.032
74 | ATTTGGGCTC | 0.98 ± 0.029
75 | ATTTGGGGAA | 0.976 ± 0.021

Row | Sequence | switch fluorescence ratio
76 | ATTTGGGGTA | 1.01 ± 0.024
77 | ATTTGGGGTG | 1.016 ± 0.0069
78 | ATTTGGGT | 0.999 ± 0.021
79 | ATTTGGTACC | 0.977 ± 0.043
80 | ATTTGGTATT | 0.992 ± 0.041
81 | ATTTGGTTGT | 0.958 ± 0.021
82 | ATTTGTCCGG | 1.007 ± 0.0081
83 | ATTTGTTGGA | 0.989 ± 0.04
84 | ATTTTAAAAT | 0.977 ± 0.013
85 | ATTTTAAACG | 0.979 ± 0.021
86 | ATTTTAAATT | 1 ± 0.019
87 | ATTTTAAGAG | 1.01 ± 0.02
88 | ATTTTAATTT | 1.01 ± 0.015
89 | ATTTTAGGTC | 0.989 ± 0.025
90 | ATTTTAGT | 1.01 ± 0.038
91 | ATTTTATGCG | 0.985 ± 0.023
92 | ATTTTCAATG | 1 ± 0.018
93 | ATTTTCGACA | 1.022 ± 0.0028
94 | ATTTTCGGGT | 0.9766 ± 0.0023
95 | ATTTTCTGTA | 1.0017 ± 0.00088
96 | ATTTTGAATG | 0.979 ± 0.05
97 | ATTTTGCAGG | 0.997 ± 0.046
98 | ATTTTGCCTT | 1 ± 0.015
99 | ATTTTGGATG | 0.996 ± 0.025
100 | ATTTTGGGGG | 0.988 ± 0.021
